B1: C1 competitor (RBM in random flanks) (dsDNA)
DNA 1: ACTAGCTCTCTGGGAATTGTAGTTCGGCAATCTCT
DNA 2: AGAGATTGCCGAACTACAATTCCCAGAGAGCTAGT
B2: C2 competitor (both RBM half-sites mutated) (dsDNA)
DNA 1: ACTAGCTCTTGATTCCGGAGCTGGAGGCAATCTCT
DNA 2: AGAGATTGCCTCCAGCTCCGGAATCAAGAGCTAGT

Legend:
[1] = target: T1, Ronin (Thap11), Prospec PRO-2009 (UniProt Q96EK4 1-314); test: competition; abolishes Ronin-stimulated circularization of N3; Circularization: 1x T4 ligase buffer, 100 ng DNA, 1.358 uM protein, 10 uL, 25 min RT, then ligase 20 min RT. AFM: 1x LightShift binding buffer, 350 mM KCl, 1 mM EDTA, 6% glycerol, 10 min on ice, then 0.4x T4 ligase buffer, 20% glycerol, 1 mM EDTA, 2 mM GTP, 30 min RT; conditions: protein: commercial; blunt
T1 sequence (Q96EK4 whole entry): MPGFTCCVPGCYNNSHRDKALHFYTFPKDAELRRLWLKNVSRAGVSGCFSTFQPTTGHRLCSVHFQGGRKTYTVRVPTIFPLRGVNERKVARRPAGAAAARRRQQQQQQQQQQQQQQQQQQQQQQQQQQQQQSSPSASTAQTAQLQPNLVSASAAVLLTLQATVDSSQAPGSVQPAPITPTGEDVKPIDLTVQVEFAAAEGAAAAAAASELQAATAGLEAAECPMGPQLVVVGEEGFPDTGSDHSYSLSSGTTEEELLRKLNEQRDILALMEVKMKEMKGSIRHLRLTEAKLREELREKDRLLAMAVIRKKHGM

[2] = target: T1, Ronin (Thap11), Prospec PRO-2009; test: competition; no effect on Ronin-stimulated circularization of N3; Circularization: 1x T4 ligase buffer, 100 ng DNA, 1.358 uM protein, 10 uL, 25 min RT, then ligase 20 min RT. AFM: 1x LightShift binding buffer, 350 mM KCl, 1 mM EDTA, 6% glycerol, 10 min on ice, then 0.4x T4 ligase buffer, 20% glycerol, 1 mM EDTA, 2 mM GTP, 30 min RT; conditions: protein: commercial; blunt

Row | Binder | binding result [1] | binding result [2]
1 | B1 | binds | –
2 | B2 | – | no binding
